Data from patent US7820179B2, “Pegylated PTH as PTH receptor modulators and uses thereof” (Eli Lilly and Company, priority 2006, dated 2010).
No end group written: not given here.

Legend:
Type in all cases: in vivo, rat
[1] = test system: young adult osteopenic ovariectomized rats; assay: Young adult osteopenic ovariectomized rats: femur BMD (QCT) and serum calcium; conditions: young adult Ovx rats
Description: Female Sprague-Dawley rats about 3 months of age are ovariectomized, except for sham controls, and maintained on a 12 hour light/dark cycle at 22° C. with ad lib access to food (TD 89222 with 0.5% Ca and 0.4% P, Teklad, Madison, Wis.) and water. Ovariectomized (Ovx) rats are allowed to lose bone for 25 days, and then weighed and randomized into treatment groups. Treatment is by subcutaneous injection of a compound of the invention at various doses (as indicated in Table 2 below) for 1 month in a vehicle of 20 mM NaH2PO4 in 0.9% NaCl, 3 mg/ml mannitol, pH 5. The rats are injected with the compounds every third or fourth day to approximate once weekly administration to a human. Sham and Ovx controls are treated with the vehicle only (“sham vehicle control” and “ovx vehicle control”). Sera are collected by cardiac puncture approximately 24 hours after final injection under isoflurane anesthesia at necropsy (approximately 24 hours after the final injection), and analyzed using a clinical chemistry analyzer (Hitachi 917, Tokyo, Japan).
At necropsy, left femora are removed, cleaned of soft-tissue and stored in 50% ethanol/saline at 4° C. At room temperature, femora in 50% EtOH/saline are wrapped in Parafilm and centered with respect to the gantry for quantitative computed tomography (QCT) (Research M, Stratec). […]

[2] = test system: aged osteopenic ovariectomized rats; assay: Direct comparison of 2 kD and 5 kD pegylated SEQ ID NO: 1 in aged osteopenic ovariectomized rats; conditions: for Serum Calcium: 24 hours after dosing
Text: A compound of the invention with SEQ ID NO: 1, wherein the mPEG to which it is conjugated is a 2 kD mPEG, is directly compared to a compound of the invention with SEQ ID NO: 1, wherein the mPEG to which it is conjugated is a 5 kD mPEG. Aged osteopenic ovariectomized rats are permitted to lose bone for one month before dosing (nmol/kg as in Table 5 and 6) every 6 days with vehicle alone, or the 2 kD pegylated SEQ ID NO: 1 compound or the 5 kD pegylated SEQ ID NO: 1 compound for 8 weeks.

[3] = test system: aged osteopenic ovariectomized rats; assay: Aged osteopenic ovariectomized rats: vertebral BMD/BMC, bone biomechanical strength, serum calcium
Description: Hypercalcemia is defined herein as the upper 97.5 percentile serum calcium value of normal ovariectomized vehicle controls for the animal type used, using clinical chemistry data and sera collected from cardiac puncture (International Federation of Clinical Chemistry, H E Solberg in Tietz Fundamentals of Clinical Chemistry, 5th edition, Burtis C A and Ashwood E R, editors, 2001, pp 251-261). The value reflecting the 97.5 percentile is 11.2 mg of calcium per dL of serum from ovx vehicle control. The “Hypercalcemic Dose”, i.e., the dose at which hypercalcemia is observed 24 hours after injection of the test compound using clinical chemistry data and sera collected from cardiac puncture, is determined by interpolation, using regression analysis to fit the calcemic dose response observed 24 hours after administering the compound to ovariectomized rats.
Female Sprague-Dawley rats about 6 months of age are ovariectomized, except for sham controls, and maintained on a 12 hour light/dark cycle at 22° C. with ad lib access to food (TD 89222 with 0.5% Ca and 0.4% P, Teklad, Madison, Wis.) and water. Ovariectomized (Ovx) rats are allowed to lose bone for one month before treatment with compounds of the invention for two additional months. The compound to be tested is subcutaneously administered at various doses (as indicated in Table 3 below) in a vehicle of 20 mM NaH2PO4 in 0.9% NaCl, 3 mg/ml mannitol, pH 5, every 6 or 7 days for two months. Sham and Ovx controls are treated with the vehicle only (“sham vehicle control” and “ovx vehicle control”). Sera are then collected by cardiac puncture under isoflurane anesthesia at necropsy, and analyzed using a clinical chemistry analyzer. Lumbar vertebra L4-6 and left femora are removed, cleaned of soft-tissue and stored in 50% ethanol/saline at 4° C. At room temperature, L-5 in 50% EtOH/saline are wrapped in Parafilm and centered with respect to the QCT gantry (Research M, Stratec). A coronal scout scan of the L-5 vertebra is generated first in 2D before 3D analysis. QCT parameters are measured including BMD (mg/cc), BMC (mg), and cross-sectional area (mm^2). Lumbar vertebra L-5, femoral midshaft, and proximal femur are then prepared for biomechanical testing. Strength (N) is evaluated by loading the specimens to failure as described previously (Sato, et al., Endocrinology, […]:4330-4337, 1997).
Pegylated compounds of the invention are evaluated in this assay relative to a positive control of 3-5 μg/kg/d PTH(1-38). PTH(1-34) and PTH(1-38) are found to be indistinguishable in terms of skeletal efficacy or calcemic effects in osteopenic ovariectomized rats. It has been previously shown that rats administered 5 μg/kg/d (1 nmol/kg/d) PTH(1-34) have a systemic exposure that is about 3 times that of PTH(1-34) (i.e., FORTEO™) in humans (Tashjian and Chabner, J. Bone Miner Res, 17:1151-1161, 2002; Tashjian and Gagel, J. Bone Miner Res, 21:354-365, 2006). […] This is confirmed for PTH(1-38) in this model with a dosing of 3-5 μg/kg/d.

[4] = 11 nmol/kg every 6 days for 8 weeks
[5] = 32 nmol/kg every 6 days for 8 weeks
[6] = 108 nmol/kg every 6 days for 8 weeks

SEQ ID NO: 1 with 5 kD mPEG (SVSEIQLMHNLGRHLASMERVEWLRKLLQDVHNF-NH2; not fully specified (residue 26))
Hypercalcemic Dose/BMD Dose [1]: >8.8 | Vertebral BMD [2, 4]: 567 mg/cc | Serum Calcium [2, 4]: 10.86 mg/dL | Vertebral BMD [2, 5]: 589 mg/cc | Serum Calcium [2, 5]: 10.79 mg/dL | Vertebral BMD [2, 6]: 612 mg/cc | Serum Calcium [2, 6]: 11.03 mg/dL | Hypercalcemic Dose/Femoral Neck Strength Dose ([3]; derived from Table 3): >9.7 | Hypercalcemic Dose/Midshaft Strength Dose ([3]; derived from Table 3): >1.0 | Hypercalcemic Dose/Vertebral BMC Dose ([3]; derived from Table 3): >3.34 | Hypercalcemic Dose/Vertebral BMD Dose ([3]; derived from Table 3): >1.0 | Hypercalcemic Dose/Vertebral Strength Dose ([3]; derived from Table 3): >1.0 | Vertebral BMC Dose ([3]; dose at which Sham level of vertebral BMC is achieved): 32 nmol/kg | Vertebral BMD Dose ([3]; dose at which Sham level of vertebral BMD is achieved, s.c. every 6 or 7 days for two months): >108 nmol/kg | Fem Neck Strength Dose ([3]; dose at which femoral neck strength comparable to sham vehicle control and positive control is achieved): 11 nmol/kg | Midshaft Strength Dose ([3]; dose at which midshaft strength comparable to sham vehicle control and positive control is achieved): 108 nmol/kg | Vertebral Strength Dose ([3]; dose at which vertebral strength comparable to sham and positive control is achieved): 108 nmol/kg | Hypercalcemia Dose ([3]; sera 24 hours after administration, > means highest dose tested, not reached): >107 nmol/kg
